Positions count from the first letter of the chain named. Several values for one entry are separate records, joined by “and”; a condition that tells them apart may be missing. Equal entries are not always repeated.
B1: Ab15 (antibody, human IgG2, kappa, V domains shown)
VH: EVQLLESGGGVVQPGRSLRLSCAASGFTFSSYAMHWVRQAPGKGLEWVAVISYDGSNKYYADSVKGRFTISRDNSKNTLSLQMNSLRVEDTAIYYCVRGAGRGYTYGPDGFDIWGQGTMVTVSS
VL: DIVMTQTPLSLSVTPGQPASISCTSSRSLLHSDGKTYVYWYVQKSGQPPQLLIYELSNRFSGVPDRFSGSGSRTDFTLKISRVEAEDVGVYYCMQYIEAPLTFGGGTKVEIKR
notes: Format in each assay not spelled out; also called FGF#26
B2: Ab19 (antibody, human IgG2, kappa, V domains shown)
VH: B1 VH with Y104F, Y106L
VL: B1 VL with T24K
notes: format in the assays not spelled out
B3: Ab60 (antibody, human IgG2, kappa, V domains shown)
VH: B1 VH with T28D, S30A, S31G, Y104L
VL: B1 VL
notes: as for B2
B4: Ab90 (antibody, human IgG2, kappa, V domains shown)
VH: B1 VH with T105P
VL: B1 VL with I97V, A99V
notes: as for B2
B5: Ab92 (antibody, human IgG2, kappa, V domains shown)
VH: B1 VH with R102H, Y104F, T105P, Y106T
VL: B1 VL with T24R, I97V
notes: as for B2
B6: Ab4 (scFv format) (scFv)
scFv: EVQLLESGGGVVQPGRSLRLSCAASGFTFSSYAMHWVRQAPGKGLEWVALISYDGSNKYYADSVKGRFTISRDNSKNTLYLQMNSLRAEDTAIYYCVRGAGRGYTYGPDGFDIWGQGTMVTVSSASTGGGSGGGGSDIVMTQTPLSLSVTPGQPASIFCKSSQSLIFGDGKTYLYWYLQKPGQPPRLLIYQVSNRFSGVPDRFSGSGAGTDFTLKISRVEAEDVGVYYCMQAKQFPWTFGQGTKLEIKRTVAAPSHHHHHH
notes: also called FGF#10

These binders were tested against FGFR1 on tumour cells (UniProt P11362 22-822) (assay: cell-based or functional assay).
Chain of FGFR1 on tumour cells (P11362 22-822): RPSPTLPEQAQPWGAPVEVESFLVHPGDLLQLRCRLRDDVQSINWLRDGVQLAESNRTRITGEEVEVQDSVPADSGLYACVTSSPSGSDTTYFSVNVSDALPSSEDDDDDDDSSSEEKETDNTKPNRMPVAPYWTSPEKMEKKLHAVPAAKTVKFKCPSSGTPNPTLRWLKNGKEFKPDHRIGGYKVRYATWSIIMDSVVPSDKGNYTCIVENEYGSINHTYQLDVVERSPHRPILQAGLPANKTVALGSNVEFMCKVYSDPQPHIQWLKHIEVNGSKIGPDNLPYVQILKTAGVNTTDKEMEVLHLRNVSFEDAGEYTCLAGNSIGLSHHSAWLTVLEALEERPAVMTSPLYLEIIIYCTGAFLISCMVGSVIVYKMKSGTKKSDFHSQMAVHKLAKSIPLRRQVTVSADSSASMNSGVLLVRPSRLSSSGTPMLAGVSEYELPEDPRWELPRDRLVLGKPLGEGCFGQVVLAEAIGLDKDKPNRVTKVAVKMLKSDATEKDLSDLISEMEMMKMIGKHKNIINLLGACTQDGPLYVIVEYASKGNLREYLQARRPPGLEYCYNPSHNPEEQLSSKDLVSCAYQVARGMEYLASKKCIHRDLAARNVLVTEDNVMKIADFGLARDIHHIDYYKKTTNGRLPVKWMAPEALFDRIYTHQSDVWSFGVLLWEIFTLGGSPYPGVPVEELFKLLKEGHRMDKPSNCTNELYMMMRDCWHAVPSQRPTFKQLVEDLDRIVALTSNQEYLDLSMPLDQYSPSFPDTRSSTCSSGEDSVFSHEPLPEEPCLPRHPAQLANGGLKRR

Binder | IC50 of pERK inhibition (AlphaScreen SureFire) in NCI-H1581 cells
B1 | 4.12 nM
B2 | 1.01 nM
B3 | 0.385 nM
B4 | 0.715 nM
B5 | 1.91 nM

What follows are binders tested against T1, recombinant human FGFR1c Fc fusion (human, UniProt P11362 141-376) (assay: ELISA, scFv on coated FGFR-Fc).
T1 construct: also called FGFR1IIIc; not shown: Fc part of the FGFR-Fc fusion
T1 sequence: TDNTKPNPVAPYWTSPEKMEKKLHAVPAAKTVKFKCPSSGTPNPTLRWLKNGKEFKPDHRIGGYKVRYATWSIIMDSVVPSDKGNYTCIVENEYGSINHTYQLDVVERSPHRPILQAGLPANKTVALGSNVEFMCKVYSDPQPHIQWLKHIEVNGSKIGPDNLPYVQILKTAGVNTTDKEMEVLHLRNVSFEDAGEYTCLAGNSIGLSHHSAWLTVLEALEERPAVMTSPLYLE
Experimental: (§1) To characterize the novel anti-FGFR antibodies, their relative ability to bind to each individual FGFR in vitro was compared. A solid phase-based ELISA was used to measure the relative binding of the candidate antibodies to immobilized recombinant human FGFR1c, FGFR2c, FGFR3c, and FGFR4. EC50 binding curves were generated for a subset of candidates (FIGS. 3A-3D, respectively; Table 1).
(§2) For the ELISA assay, the ability of each mAb to cross react with the […] FGF receptors was tested across a concentration curve in order to determine the relative binding across FGFR1-4. FGFR2IIIb was used as a negative control. Black 384-well Maxisorp plates were coated overnight with FGFR-Fc fusions in PBS to 1 ug/ml before washing and blocking with 75 ul/well Pierce Protein Free (PBS) Blocking Buffer for 1 hour at RT. Antibody dilutions were prepared freshly in 1% BSA- PBS+0.05% Tween20 and 25 ul of each antibody was added to wells in duplicate. Plates were incubated at RT for 2 hours, followed by addition of detection antibody at 50 ng/ml in 1% BSA PBS, 0.05% Tween20. ECL substrate (Pierce) was added and plates were read on the EnVision plate reader.

Binder | EC50
B6 | 0.247 nM

These binders were tested against T2, recombinant human FGFR3c Fc fusion (human, UniProt P22607 141-372) (assay: ELISA, scFv on coated FGFR-Fc).
T2 construct: also called FGFR3IIIc; not shown: Fc part of the FGFR-Fc fusion
T2 sequence: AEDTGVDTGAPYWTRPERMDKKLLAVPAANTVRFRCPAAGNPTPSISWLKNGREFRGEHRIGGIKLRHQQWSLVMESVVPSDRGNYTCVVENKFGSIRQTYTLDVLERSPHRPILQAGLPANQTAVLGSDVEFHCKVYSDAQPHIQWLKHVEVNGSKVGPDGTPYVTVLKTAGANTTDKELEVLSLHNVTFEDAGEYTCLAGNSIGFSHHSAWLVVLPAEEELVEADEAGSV
Experimental: as §1, §2

Binder | EC50
B6 | 25.9 nM

What follows are binders tested against T3, recombinant human FGFR4 Fc fusion (human, UniProt P22455 144-369) (assay: ELISA, scFv on coated FGFR-Fc).
T3 construct: 19 used; also called FGFR4c; not shown: Fc part of the FGFR-Fc fusion
T3 sequence: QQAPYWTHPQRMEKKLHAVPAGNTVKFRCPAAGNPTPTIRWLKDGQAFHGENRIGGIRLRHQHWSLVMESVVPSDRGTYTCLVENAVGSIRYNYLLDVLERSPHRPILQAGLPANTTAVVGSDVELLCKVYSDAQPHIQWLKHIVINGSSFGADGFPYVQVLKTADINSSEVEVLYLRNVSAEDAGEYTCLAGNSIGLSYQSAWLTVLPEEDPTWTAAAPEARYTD
Experimental: as §1, §2

Binder | EC50
B6 | 0.506 nM

These binders were tested against T1, recombinant human FGFR1c Fc fusion (assay: solid phase ELISA on coated FGFR-Fc).
Experimental: as §2

Binder | EC50
B1 | 0.0112 nM
B2 | 0.00674 nM
B3 | 0.0117 nM
B4 | 0.013 nM
B5 | 0.0242 nM

What follows are binders tested against T4, recombinant human FGFR2c Fc fusion (human, UniProt P21802 148-377) (assay: solid phase ELISA on coated FGFR-Fc).
T4 construct: also called FGFR2IIIc; not shown: Fc part of the FGFR-Fc fusion
Experimental: as §2

T4 sequence (P21802 148-377): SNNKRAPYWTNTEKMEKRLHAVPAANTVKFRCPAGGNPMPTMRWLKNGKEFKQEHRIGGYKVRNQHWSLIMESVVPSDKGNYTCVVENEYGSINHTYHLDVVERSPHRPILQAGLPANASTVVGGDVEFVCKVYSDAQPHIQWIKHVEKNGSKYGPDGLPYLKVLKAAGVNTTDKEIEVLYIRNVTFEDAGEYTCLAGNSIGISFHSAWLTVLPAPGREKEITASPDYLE

Binder | EC50
B1 | 0.0147 nM
B2 | 0.0127 nM
B3 | 0.0224 nM
B4 | 0.036 nM
B5 | 0.0325 nM

What follows are binders tested against T2, recombinant human FGFR3c Fc fusion (assay: solid phase ELISA on coated FGFR-Fc).
Experimental: as §2

Binder | EC50
B1 | 0.129 nM
B2 | 0.0745 nM
B3 | 0.0687 nM
B4 | 0.171 nM
B5 | 0.264 nM

Each binder was assayed against T3, recombinant human FGFR4 Fc fusion (assay: solid phase ELISA on coated FGFR-Fc).
Experimental: as §2

Binder | EC50
B1 | 7.56 nM
B2 | 38.2 nM
B3 | 0.31 nM
B4 | 1.26 nM
B5 | 13.1 nM

Each binder was assayed against T5, soluble FGFR3c receptor protein (human, UniProt P22607 141-372) (assay: BLI Octet RED96, antibody on anti-hIgG Fc tip).
T5 sequence: T2 sequence
Experimental: (§3) Briefly, the Pall ForteBio Octet RED96 Bio-Layer Interferometry system was used to determine the specificity of anti-FGFR antibodies for FGFR1c, FGFR2c, FGFR3c, and FGFR4. The antibodies and soluble receptor proteins were prepared in PBS at a concentration of 300 nM. First, the candidate antibodies were immobilized on the surface of anti-human IgG Fc biosensor tips for 120 seconds. After immobilization, the biosensors were dipped in PBS solution for 60 seconds (baseline step) to assess assay drift, and determine loading level of antibodies. The baseline step was followed by an association step of 300 seconds wherein the binding interaction between the immobilized antibodies and soluble receptors was measured. Following the association step, the biosensors were dipped into PBS buffer for 600 seconds to measure the dissociation of the bound receptor proteins from the immobilized antibodies. Each binding response was measured and reported real time on a sensorgram trace. For data analysis, a simple 1:1 binding model was used which measures the rate of complex formation of one immobilized antibody and one soluble receptor protein.

Binder | Kd | koff | kon
B1 | 8.42 nM and 8.59 nM and 8.21 nM | 0.00108 s⁻¹ and 0.00105 s⁻¹ and 0.00102 s⁻¹ | 121000 M⁻¹ s⁻¹ and 123000 M⁻¹ s⁻¹ and 124000 M⁻¹ s⁻¹
B2 | 6.29 nM | 0.000983 s⁻¹ | 151000 M⁻¹ s⁻¹
B3 | 15.4 nM | 0.00239 s⁻¹ | 154000 M⁻¹ s⁻¹
B4 | 11.6 nM | 0.0015 s⁻¹ | 126000 M⁻¹ s⁻¹
B5 | 37.6 nM | 0.00286 s⁻¹ | 75600 M⁻¹ s⁻¹

What follows are binders tested against T6, soluble FGFR4 receptor protein (human, UniProt P22455 144-369) (assay: BLI Octet RED96, antibody on anti-hIgG Fc tip).
T6 sequence: T3 sequence
Experimental: as §3

Binder | Kd | koff | kon
B1 | 11.2 nM and 7.35 nM and 7.88 nM | 0.00124 s⁻¹ and 0.00091 s⁻¹ and 0.00101 s⁻¹ | 98200 M⁻¹ s⁻¹ and 124000 M⁻¹ s⁻¹ and 128000 M⁻¹ s⁻¹
B2 | 8.63 nM | 0.0012 s⁻¹ | 125000 M⁻¹ s⁻¹
B3 | 12.5 nM | 0.00169 s⁻¹ | 117000 M⁻¹ s⁻¹
B4 | 6.69 nM | 0.000887 s⁻¹ | 112000 M⁻¹ s⁻¹
B5 | 40.3 nM | 0.00248 s⁻¹ | 60600 M⁻¹ s⁻¹

The binders below were run against T7, soluble FGFR1c receptor protein (human, UniProt P11362 141-376) (assay: BLI Octet RED96, antibody on anti-hIgG Fc tip).
T7 sequence: T1 sequence
Experimental: as §3

Binder | Kd | kon | koff
B1 | 13.7 nM and 4.72 nM and 7.39 nM | 76500 M⁻¹ s⁻¹ and 48900 M⁻¹ s⁻¹ and 44600 M⁻¹ s⁻¹ | 
B2 | 8.85 nM | 91600 M⁻¹ s⁻¹ | 0.000967 s⁻¹
B3 | 14.5 nM | 111000 M⁻¹ s⁻¹ | 0.00165 s⁻¹
B4 | 12 nM | 85100 M⁻¹ s⁻¹ | 0.00116 s⁻¹
B5 | 20 nM | 57000 M⁻¹ s⁻¹ | 0.00129 s⁻¹

Each binder was assayed against soluble FGFR2c receptor protein (human, UniProt P21802 148-377) (assay: BLI Octet RED96, antibody on anti-hIgG Fc tip).
Experimental: as §3

Chain of soluble FGFR2c receptor protein (P21802 148-377): as above

Binder | Kd | koff | kon
B1 | 10.3 nM and 11.8 nM and 11.5 nM | 0.00193 s⁻¹ and 0.00234 s⁻¹ and 0.00235 s⁻¹ | 183000 M⁻¹ s⁻¹ and 199000 M⁻¹ s⁻¹ and 205000 M⁻¹ s⁻¹
B2 | 6.61 nM | 0.00167 s⁻¹ | 252000 M⁻¹ s⁻¹
B3 | 6.93 nM | 0.00188 s⁻¹ | 254000 M⁻¹ s⁻¹
B4 | 4.62 nM | 0.0011 s⁻¹ | 218000 M⁻¹ s⁻¹
B5 | 8.75 nM | 0.00142 s⁻¹ | 147000 M⁻¹ s⁻¹

Each binder was assayed against T8, 6His-Fc-FGFR4 (human, UniProt P22455 144-369) (assay: competition ELISA, blocks 6His-Fc-FGFR4 binding to coated FGF2).
T8 construct: not shown: 6His tag and Fc as named in '6His-Fc-FGFR'
T8 sequence: T3 sequence
Experimental: (§4) ELISA plates were coated with 50 ug/ml Heparin Sulfate (HSPG) (Sigma Aldrich) and incubated overnight at room temperature. Plates were then washed extensively with PBS containing 0.05% v/v Tween20 (PBST). Plates were then blocked with 2.5% BSA in PBST for one hour and washed extensively as before. 40-60 μL of FGF1 or FGF2 was then added to each well at 40 μg/ml and allowed to bind at room temperature for 2 hours. Plates were then washed extensively with PBST as before. Stock solutions of each 6His-Fc-FGFR (FGFR1-4) were prepared at 500 ng/ml in 2% v/v BSA-PBST and each antibody was prepared as a 2×-dilution series in 2% v/v BSA-PBST. Antibodies dilution series and 6His-Fc-FGFR1-4 were diluted in a 1:1 fashion and immediately added to the relative wells of the plate and allowed to bind for 2 hours at room temperature. Plates were washed extensively as before with PBST and the remaining fraction of bound 6His-Fc-FGFR was detected using a polyclonal-anti-His-6-HRP conjugated antibody (Abcam) for one hour at room temperature. After extensive washing with PBST, 50 μl of Pierce Chemiluminescent substrate (Thermo Fisher Scientific, Rockford, USA) was added and plates were measured on an Envision plate reader (Perkin Elmer). Raw data was background corrected and plotted using Prism software. […]

Binder | IC50
B1 | 25.7 nM
B2 | 11.8 nM
B3 | ~7.32 nM
B4 | 7.38 nM
B5 | 14 nM

These binders were tested against T9, 6His-Fc-FGFR1c (human, UniProt P11362 141-376) (assay: competition ELISA, blocks 6His-Fc-FGFR1c binding to coated FGF2).
T9 construct: not shown: 6His tag and Fc as named in '6His-Fc-FGFR'
T9 sequence: T1 sequence
Experimental: as §4

Binder | IC50
B1 | 3.35 nM
B2 | 2.03 nM
B3 | 3.83 nM
B4 | 4.15 nM
B5 | 4.16 nM

Source: patent US20180244785A1 (MERRIMACK PHARMACEUTICALS, published 2018)
